# Assay results as given in patent US20040052816A1 (Pfizer, published 2004).
# B1: recombinant 20 kDa surface associated protein from S. pneumoniae (Pneumo Protective Protein 1) (other)
# chain: MNEVKKMVELKKEAVKDVTSLTKAAPVALAKTKEVLNQAVADLYVAHVALHQVHWYMHGRGFLVWHPKMDEYMEALDGQLDEISERLITLGGSPFSTLTEFLQNSEIEEEAGEYRNVEESLERVLVIYRYLSELFQKGLDVTDEEGDDVTNGIFAGAKTETDKTIWMLAAELGQAPGL
# notes: also called r20 kDa; r20kDa
# Target: the molecule itself
# Experiment: self-association: retained by a 100,000 MW cutoff membrane in diafiltration
protein,measurement,value
B1,binding result,binds
